Columns and labels:
Assay in all cases: cell-based or functional assay
[1] = biological target: Gc of RVFV-MP-12 (Rift Valley Fever Virus strain MP-12)
[2] = biological target: Gc of RVFV-ZH501 (Rift Valley Fever Virus strain ZH501)
[3] = biological target: Gc of RVFV-SA51 (Rift Valley Fever Virus strain SA51)
[4] = biological target: Gn of RVFV-SA51 (Rift Valley Fever Virus strain SA51)
[5] = biological target: Gn of RVFV-ZH501 (Rift Valley Fever Virus strain ZH501)
[6] = biological target: Gn of RVFV-MP-12 (Rift Valley Fever Virus strain MP-12)

B1: RVFV-326 (antibody, V domains shown)
VH: EAQLVESGGGLVKPGGSLRLSCAASGFSFSYAWMSWVRRLPGKGLEWVGRIKGKADGETTDYAAPVKGRFTISRDDSKTTVYLQMNTLKIEDTGVYYCTTDIGDFYDSIGYSYTDYWGQGTLVTVSS
VL: EIVLTQSPATLSLSPGERATLSCRASQSVSSYLAWYQQKPGQAPRLLIYDASNRATGIPVRFSGSGSGTDFTLTISSLEPEDFALYYCQQRSDWPPTFGQGTKVEIK
[1]
  IC50 (ng/ml), neutralization of RVFV-MP-12: 70 ng/mL
[2]
  Fold-Change ZH501/MP-12 (ratio of neutralization IC50s): 15.9 fold
  IC50 (ng/ml), neutralization of RVFV-ZH501: 1110 ng/mL
[3]
  IC50 (ng/ml), neutralization of RVFV-SA51: 370 ng/mL

B2: RVFV-250 (antibody, V domains shown)
VH: QVQLQESGPGLAKPSETLSLTCTVSGGSISSYFWSWIRQPAGKGLEWIGRIHTTGSTNYNPSLKNRVIMSVDTSKNQFSLNLSSVTAADTAVYYCAREGTAFDIWGQGTMVTVSS
VL: SYELTQSPSVSVSPGQTASIPCSGDKLGDKYACWYQQKPGQSPVLVIYQDTKRPSGIPERFSGSNSGNTATLTISETQAMDEADYYCQAWDSSTPWVFGGGTKLTVL
[1]
  IC50 (ng/ml), neutralization of RVFV-MP-12: 51 ng/mL
[2]
  Fold-Change ZH501/MP-12 (ratio of neutralization IC50s): 2.4 fold
  IC50 (ng/ml), neutralization of RVFV-ZH501: 120 ng/mL
[3]
  IC50 (ng/ml), neutralization of RVFV-SA51: 120 ng/mL

B3: RVFV-379 (antibody, V domains shown)
VH: QVQLQESGPGLVKPSQTLSLTCTVSGDSISGGDYYWSWIRRPAGEGLEWIGRVHTTGSTDYNPSLRTRVTISIDTSKNHFFLKMTSVTAADTAVYYCAREGDYSAWFDPWGQGALVTVSS
VL: DIQMTQSPSSLSASIGDRVTITCRASQHIESFLNWYQQKPGKAPKLLIYIASTLQGGVPSRFSGRGFGTDFTLTINSLQPEDFATYYCQQSYTISPITFGQGTRLEIK
[4]
  IC50 (ng/ml), neutralization of RVFV-SA51: 13 ng/mL
[5]
  Fold-Change ZH501/MP-12 (ratio of neutralization IC50s): 3.5 fold
  IC50 (ng/ml), neutralization of RVFV-ZH501: 4.57 ng/mL
[6]
  IC50 (ng/ml), neutralization of RVFV-MP-12: 1.3 ng/mL

B4: RVFV-381 (antibody, V domains shown)
VH: QEQLVESGGGVVQPGRSLRLSCAASGFTLRGYGIYWVRQAPGKGLEWVAVISHDGKNESYTDSVKGRFSISRDKSKNTVFLQMNSLTTQDTSVYYCARWTEGSEEFYYHGLDVWGQGTTVTVSP
VL: SYELTQPPSVSVSPGQTARITCSGHLLPKQYAYWYQQKPGQAPTLVIYADYNRASGIPERFSGASSGTTVTLTITGVKAEDQADYYCQSIDNRFHYPMIFGGGTKLTVL
[4]
  IC50 (ng/ml), neutralization of RVFV-SA51: 10000 ng/mL
[5]
  Fold-Change ZH501/MP-12 (ratio of neutralization IC50s): 2.3 fold
  IC50 (ng/ml), neutralization of RVFV-ZH501: 10000 ng/mL
[6]
  IC50 (ng/ml), neutralization of RVFV-MP-12: 4440 ng/mL

B5: RVFV-226 (antibody, V domains shown)
VH: EVQLVESGGGLVQPGRSLRLSCAASGFTFDDYAMHWVRQAPGKGLEWVSGISWNSGSIGYVDSVKGRFTISRDNAKNSLYLQMNSLRAEDTALYYCAKGLVGAIHDAFDIWGQGTMVTVSS
VL: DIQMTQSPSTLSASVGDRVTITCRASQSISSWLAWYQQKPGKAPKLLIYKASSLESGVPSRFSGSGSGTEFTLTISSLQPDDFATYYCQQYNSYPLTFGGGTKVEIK
[4]
  IC50 (ng/ml), neutralization of RVFV-SA51: 3330 ng/mL
[5]
  Fold-Change ZH501/MP-12 (ratio of neutralization IC50s): 1.3 fold
  IC50 (ng/ml), neutralization of RVFV-ZH501: 10000 ng/mL
[6]
  IC50 (ng/ml), neutralization of RVFV-MP-12: 7690 ng/mL

B6: RVFV-405 (antibody, V domains shown)
VH: EVQLVESGGGLVQPGGSLRLSCAASGFTFSSFEMNWVRQAPGKGLEWVSYISRSGTTKHYADSVKGRFAISRDDAKNSLYLQMNSLRAEDTAVYYCARGGARVLQAPLDYWGQGTLVTVSS
VL: SYELTQPPSVSVAPGETARITCGGTNIGNKSVRWYQQKPGQAPVLVIYYDNDRPSGIPERFSGSNSGNTATLTISRVEAGDEADYYCQVWDNSSDHAVFGGGTKLTVL
[4]
  IC50 (ng/ml), neutralization of RVFV-SA51: 30000 ng/mL
[5]
  Fold-Change ZH501/MP-12 (ratio of neutralization IC50s): 1 fold
  IC50 (ng/ml), neutralization of RVFV-ZH501: 30000 ng/mL
[6]
  IC50 (ng/ml), neutralization of RVFV-MP-12: 30000 ng/mL

B7: RVFV-296 (antibody, V domains shown)
VH: QVQLVQSGSELKKSGASVKVSCRASGYTFTTYVMNWVRQAPGQGLEWMGWINTNTGNPTYAQGFTGRFVFSLDTSVSTAYLQINSLKAEDTAVYYCAREYNSFDYWGQGTLVTVSS
VL: QSVLTQPPSVSGAPGQRVTISCTGSSSNIGAGYDVHWYQQLPGTAPKLLIYDNNNRPSGVPDRFSGSRSGTSTSLAITGLQAEDEADYYCQSYDFRLSGSVFGGGTKVTVL
[4]
  IC50 (ng/ml), neutralization of RVFV-SA51: 120 ng/mL
[5]
  Fold-Change ZH501/MP-12 (ratio of neutralization IC50s): 0.2 fold
  IC50 (ng/ml), neutralization of RVFV-ZH501: 120 ng/mL
[6]
  IC50 (ng/ml), neutralization of RVFV-MP-12: 638 ng/mL

B8: RVFV-401 (antibody, V domains shown)
VH: QITFKESGPTLVKPTQTLTLTCTFSGFSLSTSGVGVGWIRQPPGKALEWLALLYWNDDKRYTPSLRSRLTITKDTSKNQVVLTMTDMDPVDTATYYCARKPRDDFLRLTMMGGGDYFDYWGQGTLVTVSS
VL: SYELTQPPSVSVSPGQTARITCSGDALPDQYAYWYQQKPGQAPVLVLYKDNERPSGIPERFSGSTSGTTVTLTISGVQAEDEADYYCQSADTSTAYHVIFGGGTKLTVL
[4]
  IC50 (ng/ml), neutralization of RVFV-SA51: 1110 ng/mL
[5]
  Fold-Change ZH501/MP-12 (ratio of neutralization IC50s): 0.2 fold
  IC50 (ng/ml), neutralization of RVFV-ZH501: 370 ng/mL
[6]
  IC50 (ng/ml), neutralization of RVFV-MP-12: 2120 ng/mL

B9: RVFV-436 (antibody, V domains shown)
VH: QVQLHESGPGLVKPSETLSLTCGVSGYTISSDYYWGWIRQPPGKGLEWIGSIYQNGHTYYNPSLKSRVTISVDTSKNQFSLELSSVTAADTAVYYCARRGDCGADCYHFDYWGRGTAVTVSS
VL: SYEVTQPLSVSVSPGQTASITCSGEKLENKYVSWYQQKPGQSPVLVMYQDFKRPSGIPERFSGSNSGNTATLTISGTQAMDEADYYCQAWDRSTFYVFGTGTKVTVVG
[4]
  IC50 (ng/ml), neutralization of RVFV-SA51: 4.57 ng/mL
[5]
  Fold-Change ZH501/MP-12 (ratio of neutralization IC50s): 1.8 fold
  IC50 (ng/ml), neutralization of RVFV-ZH501: 4.57 ng/mL
[6]
  IC50 (ng/ml), neutralization of RVFV-MP-12: 2.5 ng/mL

B10: RVFV-121 (antibody, V domains shown)
VH: QMQLQESGPGLVKPSGTLSLTCAVSGDSISTSTWWSWVRQSPGKGLEWIGEIYHSESTNYNPSLKSRVSLSLDKSKNQLSLRLSSVTAADTGVYYCARGSLVFDYWGQGAQVVVSS
VL: EIVMTQSPATLSVSPGERATLSCRASQSVSSNLAWYQQKPGQAPRLLIYAASTRATGIPARFSGSGSGTEFTLTISSLQSEDFAVYYCQQFNNWPRTFGQGTKVEIK
[1]
  IC50 (ng/ml), neutralization of RVFV-MP-12: 35 ng/mL
[2]
  Fold-Change ZH501/MP-12 (ratio of neutralization IC50s): 31.7 fold
  IC50 (ng/ml), neutralization of RVFV-ZH501: 1110 ng/mL
[3]
  IC50 (ng/ml), neutralization of RVFV-SA51: 1110 ng/mL

B11: RVFV-426 (antibody, V domains shown)
VH: QVQLQESGPGLLKPSQTLSLTCGVSGDSITSTGDSWTWIRQPPGKGLEWIGYIYYSGSAYYNPSLKSRVTISVDTSKNQFSLRLRSVTAADTAVYYCARALEYGAGSWAAAFWGQGILVTVSS
VL: SYEVTQPPSVSVSPGQTASITCSGDKLVERYVSWYQQKPGQSPLLVIYHDIKRPSGIPERFSGSNSGNTATLTISGTQPMDEADYYCQAWDSSTVLFGGGTKLTVL
[4]
  IC50 (ng/ml), neutralization of RVFV-SA51: 120 ng/mL
[5]
  Fold-Change ZH501/MP-12 (ratio of neutralization IC50s): 4.5 fold
  IC50 (ng/ml), neutralization of RVFV-ZH501: 41 ng/mL
[6]
  IC50 (ng/ml), neutralization of RVFV-MP-12: 9.1 ng/mL

B12: RVFV-249 (antibody, V domains shown)
VH: QVLLVQSEAEVRKPGASVKISCKTSGYTFTTYFMHWVRQAPGQGLEWVAIVDPSTGNTGYAQRFQGRVTVTRDTSTGTLFMELTSLTTEDTAMYYCGRDRGSRAVDSWGQGTLVTVFS
VL: QSVLTQPPSVSGAPGQRVTISCSGSSSNVGPNTVSWYQQLPGVAPKLLIYRNNQRPSGVPDRFSGSKFGTSASLVIGGLQSEDEADYYCAAWDDSLNGHMVFGGGTKVAVL
[1]
  IC50 (ng/ml), neutralization of RVFV-MP-12: 6790 ng/mL
[2]
  Fold-Change ZH501/MP-12 (ratio of neutralization IC50s): 4.4 fold
  IC50 (ng/ml), neutralization of RVFV-ZH501: 30000 ng/mL
[3]
  IC50 (ng/ml), neutralization of RVFV-SA51: 30000 ng/mL

B13: RVFV-429 (antibody, V domains shown)
VH: QVQLVQSGAEVKKPGSSVKVSCRASGGTFSSYTISWVRQAPGQGLEWMGGIIPILGLTKFAQKFQDRVTITADISATTTYMELSSLTSEDTAVYYCARNGEQLEWSYYYGMDVWGQGTTVTVSS
VL: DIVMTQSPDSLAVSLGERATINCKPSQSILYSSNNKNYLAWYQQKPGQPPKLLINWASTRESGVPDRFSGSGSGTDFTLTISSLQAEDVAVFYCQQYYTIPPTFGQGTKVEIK
[4]
  IC50 (ng/ml), neutralization of RVFV-SA51: 4.57 ng/mL
[5]
  Fold-Change ZH501/MP-12 (ratio of neutralization IC50s): 5.1 fold
  IC50 (ng/ml), neutralization of RVFV-ZH501: 4.57 ng/mL
[6]
  IC50 (ng/ml), neutralization of RVFV-MP-12: 0.9 ng/mL

— patent US12703739 (VANDERBILT UNIVERSITY, dated 2026)
